The values that follow come from patent US20260049134A1 (UNIVERSITY OF FLORIDA RESEARCH FOUNDATION, published 2026).

Test [1] concerns the target T1, GARS-His (Sino Biological) (human, UniProt P41250 37-739, limits assumed).
T1 construct: Bought; also called GARS1; glycyl-tRNA synthetase; not shown: His tag of the bought protein
T1 sequence: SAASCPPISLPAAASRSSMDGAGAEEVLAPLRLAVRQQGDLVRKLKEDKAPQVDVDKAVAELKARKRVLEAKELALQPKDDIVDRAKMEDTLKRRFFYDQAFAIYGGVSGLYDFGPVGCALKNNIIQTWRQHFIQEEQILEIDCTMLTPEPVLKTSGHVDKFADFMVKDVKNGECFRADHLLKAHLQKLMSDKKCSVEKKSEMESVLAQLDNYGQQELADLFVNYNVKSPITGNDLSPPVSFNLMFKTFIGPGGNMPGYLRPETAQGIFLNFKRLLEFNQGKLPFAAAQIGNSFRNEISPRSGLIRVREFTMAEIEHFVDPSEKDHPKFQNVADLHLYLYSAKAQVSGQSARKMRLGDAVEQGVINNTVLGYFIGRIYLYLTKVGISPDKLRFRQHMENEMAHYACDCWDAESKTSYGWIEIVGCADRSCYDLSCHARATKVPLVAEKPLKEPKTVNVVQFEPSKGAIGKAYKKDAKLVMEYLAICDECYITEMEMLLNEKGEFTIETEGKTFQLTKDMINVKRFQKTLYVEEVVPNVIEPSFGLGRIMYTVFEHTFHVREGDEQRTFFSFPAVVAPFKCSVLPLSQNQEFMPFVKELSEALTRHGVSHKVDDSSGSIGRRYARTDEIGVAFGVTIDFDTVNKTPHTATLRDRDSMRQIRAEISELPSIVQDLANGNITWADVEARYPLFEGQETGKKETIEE
Description: ELISA on coated protein.

Another test concerns the target T2, IGSF11.
T2 construct: also called IGSF11-Fc (R&D Systems)
T2 chain: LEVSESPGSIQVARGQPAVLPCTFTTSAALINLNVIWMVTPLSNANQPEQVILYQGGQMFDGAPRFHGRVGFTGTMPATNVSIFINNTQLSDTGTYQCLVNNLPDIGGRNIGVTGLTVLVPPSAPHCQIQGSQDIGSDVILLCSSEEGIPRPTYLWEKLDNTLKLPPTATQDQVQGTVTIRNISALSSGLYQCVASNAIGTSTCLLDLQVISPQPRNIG
Kind of test: ELISA on coated protein.

Another test has as its target T3, DCC.
T3 construct: also called DCC-His (R&D Systems)
T3 chain: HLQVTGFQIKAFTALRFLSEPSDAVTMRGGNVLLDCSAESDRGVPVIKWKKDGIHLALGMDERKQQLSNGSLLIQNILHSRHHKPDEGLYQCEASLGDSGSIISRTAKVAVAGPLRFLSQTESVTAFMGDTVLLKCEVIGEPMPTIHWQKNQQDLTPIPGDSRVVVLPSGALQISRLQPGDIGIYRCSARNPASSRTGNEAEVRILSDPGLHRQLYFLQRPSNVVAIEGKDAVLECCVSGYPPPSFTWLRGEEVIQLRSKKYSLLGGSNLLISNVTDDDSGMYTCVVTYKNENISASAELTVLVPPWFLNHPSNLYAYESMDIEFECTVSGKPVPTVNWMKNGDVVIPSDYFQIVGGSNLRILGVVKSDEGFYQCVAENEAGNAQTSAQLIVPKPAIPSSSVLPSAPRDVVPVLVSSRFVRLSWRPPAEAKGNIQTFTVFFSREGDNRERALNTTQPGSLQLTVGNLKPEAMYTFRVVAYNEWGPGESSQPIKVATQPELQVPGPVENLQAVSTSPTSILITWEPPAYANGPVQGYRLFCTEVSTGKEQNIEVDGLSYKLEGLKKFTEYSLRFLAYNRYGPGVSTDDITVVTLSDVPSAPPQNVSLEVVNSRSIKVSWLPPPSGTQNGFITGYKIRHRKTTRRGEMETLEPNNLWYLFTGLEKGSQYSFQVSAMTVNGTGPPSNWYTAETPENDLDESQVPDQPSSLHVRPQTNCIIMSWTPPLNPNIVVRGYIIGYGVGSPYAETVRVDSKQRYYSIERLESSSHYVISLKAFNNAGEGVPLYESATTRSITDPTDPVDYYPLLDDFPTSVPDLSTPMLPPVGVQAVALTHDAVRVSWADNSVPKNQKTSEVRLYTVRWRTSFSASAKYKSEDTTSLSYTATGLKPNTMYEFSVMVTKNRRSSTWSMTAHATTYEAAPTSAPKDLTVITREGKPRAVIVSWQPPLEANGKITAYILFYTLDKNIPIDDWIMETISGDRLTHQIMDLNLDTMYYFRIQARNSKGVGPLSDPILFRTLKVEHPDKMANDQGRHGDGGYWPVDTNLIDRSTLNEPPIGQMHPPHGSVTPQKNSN
Kind of test: ELISA on coated protein.

Test [2] concerns the target T4, PTPRG, endogenous in H929 multiple myeloma cells (human, UniProt P23470 20-1445).
T4 construct: Native protein on H929 cells (flow cytometry, siRNA knockdown) and in H929 lysates (IP/MS); also called phosphatase receptor type γ
Description: flow cytometry, H929 + NT Green siRNA; None 416.

T4 sequence (P23470 20-1445 limits assumed): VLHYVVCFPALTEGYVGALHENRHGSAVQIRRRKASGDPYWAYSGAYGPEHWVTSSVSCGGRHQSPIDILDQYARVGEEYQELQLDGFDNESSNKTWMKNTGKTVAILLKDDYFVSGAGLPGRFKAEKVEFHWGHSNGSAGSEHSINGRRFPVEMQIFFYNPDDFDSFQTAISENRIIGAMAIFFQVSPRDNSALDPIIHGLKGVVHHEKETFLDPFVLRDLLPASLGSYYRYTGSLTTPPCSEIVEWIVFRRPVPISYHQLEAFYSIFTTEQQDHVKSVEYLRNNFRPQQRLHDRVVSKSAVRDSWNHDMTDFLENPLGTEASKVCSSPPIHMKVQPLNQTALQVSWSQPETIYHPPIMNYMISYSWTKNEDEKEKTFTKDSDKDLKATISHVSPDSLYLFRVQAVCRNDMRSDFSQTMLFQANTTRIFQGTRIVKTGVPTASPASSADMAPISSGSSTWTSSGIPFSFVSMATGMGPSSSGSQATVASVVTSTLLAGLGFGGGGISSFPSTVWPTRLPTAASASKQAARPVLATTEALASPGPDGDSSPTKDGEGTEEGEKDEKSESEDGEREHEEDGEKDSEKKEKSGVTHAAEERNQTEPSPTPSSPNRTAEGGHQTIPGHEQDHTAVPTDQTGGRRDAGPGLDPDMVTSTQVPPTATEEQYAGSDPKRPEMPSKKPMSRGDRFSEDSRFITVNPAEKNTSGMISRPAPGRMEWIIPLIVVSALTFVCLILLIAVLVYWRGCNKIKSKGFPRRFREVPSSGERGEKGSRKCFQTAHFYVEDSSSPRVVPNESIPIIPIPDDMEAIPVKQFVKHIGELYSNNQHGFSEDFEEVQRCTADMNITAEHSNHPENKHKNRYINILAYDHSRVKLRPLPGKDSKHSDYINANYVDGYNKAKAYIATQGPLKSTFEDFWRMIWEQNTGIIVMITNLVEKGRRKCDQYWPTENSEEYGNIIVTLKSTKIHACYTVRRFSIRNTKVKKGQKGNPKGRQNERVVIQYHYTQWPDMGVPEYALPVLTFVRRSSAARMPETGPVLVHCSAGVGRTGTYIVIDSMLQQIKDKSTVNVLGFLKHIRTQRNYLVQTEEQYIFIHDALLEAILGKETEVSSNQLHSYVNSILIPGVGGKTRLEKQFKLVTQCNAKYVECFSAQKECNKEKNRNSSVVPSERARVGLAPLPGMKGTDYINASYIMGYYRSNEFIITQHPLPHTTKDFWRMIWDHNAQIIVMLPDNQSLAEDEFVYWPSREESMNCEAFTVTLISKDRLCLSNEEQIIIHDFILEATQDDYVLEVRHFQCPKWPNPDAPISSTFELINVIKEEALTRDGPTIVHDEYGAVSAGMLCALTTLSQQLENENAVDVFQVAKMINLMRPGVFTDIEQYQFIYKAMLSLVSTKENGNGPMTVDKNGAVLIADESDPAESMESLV

B1: HW-1 chimeric rabbit-human IgG1 LA/LA/PG (antibody, V domains shown)
VH: QSLEESGGGLFKPTDTLTLTCTASGFSLGSSYAISWVRQAPGKELEWIGTIDSGRAYYARWAKSRSTITRNTNENTVTLKMTSLTAADTATYFCARDLIPTYSQDIWGPGTLVTISS
VL: SFVLTQPASVQVNLGQTVSLTCTADTLSRRYASWYQQKPGQAPVLLIYRDTSRPSGVPDRFSGSSSGNTATLTISGAQAGDEADYYCATSDGSGNSYQYVFGGGTQLTVTS
notes: Fc-silenced (L234A/L235A/P329G) IgG1, lambda; Alexa Fluor 647-labeled in single-step flow cytometry; Prototype of cluster C-1
Regarding B1, the binding result (in test [1]; in the test with IGSF11; with DCC) was “no binding (tested: 150 ng IgG1 per well)” each time. In addition, the “mAb binding (MFI)” value in test [2] is 16000.

B2: HW-97 chimeric rabbit-human IgG1 LA/LA/PG (antibody, V domains shown)
VH: QKQLVESGGRLVTPGTPLTLTCTVTGIDLSSHGMSWVRQAPGKGLEWIGVIYPSGSTWYASWARGRFTISKTSTTVDLKMTSLTTEDTATHFCARGDVGGADNNIWGPGTLVTVSS
VL: SFVLTQPASVQVDLGQTVSLTCTAETLSRSYASWYQQKPGQAPVLLIYRDTSRPSGVPDRFSGSSSGNTATLTISGAQAGDEADYYCATSDGSGSSYQYVFGGGTQLTVTG
notes: Fc-silenced (L234A/L235A/P329G) IgG1, lambda; Alexa Fluor 647-labeled in single-step flow cytometry; Prototype of cluster C-97
Consider B2, for which the binding result (in test [1]; with IGSF11; with DCC) was “no binding (tested: 150 ng IgG1 per well)” in each case.

B3: HW-17 chimeric rabbit-human IgG1 LA/LA/PG (antibody, V domains shown)
VH: QSLGESRGRLVTPDETLTLTCTVSGIDLSSNAMSWVRQAPGEGLEWIGTINTGGRAYYASWAKGRFTISRTSTTVDLKMTSLTTEDTATYFCARERYSDGRAYDIWGPGTLVTISS
VL: SFVLTQPASVQVNLGQTVSLTCTADTLSRRYASWYQQKPGQAPVLLIYTDSNRPSGIPDRFSGSSSGNTATLTISGAQAGDEADYYCATDDGSGSIYQYVFGGGTQLTVTG
notes: Fc-silenced (L234A/L235A/P329G) IgG1, lambda; Alexa Fluor 647-labeled in single-step flow cytometry; Cluster C-1
In the case of B3, the binding result (in test [1]; with IGSF11; in the test with DCC) was “no binding (tested: 150 ng IgG1 per well)” each time. In addition, in test [2], the “mAb binding (MFI)” value turned out to be 18600.

B4: HW-101 chimeric rabbit-human IgG1 LA/LA/PG (antibody, V domains shown)
VH: QEQLVESGGRLVTPGTPLTLTCKASGFSLGKYDMSWVRQAPGKGLEWIGTIYAGSGSTWYASWAKGRFTISKTSTTVDLKMTSLTTEDTATYFCARDFLGVNSIWGPGTLVTISS
VL: SFVLTQPASVQVNLGQTVSLTCTADTLSRSYASWYQQKPDQAPVLLIHRDTSRPSGVPDRFSGSNSGNTATLTISGAQAGDEADYYCATSDGSGSNFHFVFGGGTQLTVTG
notes: Fc-silenced (L234A/L235A/P329G) IgG1, lambda; Alexa Fluor 647-labeled in single-step flow cytometry; Cluster C-97
Take B4: the binding result (in test [1]; with IGSF11; in the test with DCC) was “no binding (tested: 150 ng IgG1 per well)” in each case.

B5: HW-113 chimeric rabbit-human IgG1 LA/LA/PG (antibody, V domains shown)
VH: QKQLVESGGGLVQPGGSLTLTCTVSGFSLNKYYMGWFRQAPGKGLEWIGVISRSGDTYYSSWAKGRFTISKASTTVDLRITSPTTEDTATYFCARDASSPGFHGDRLDLWGQGTLVTVSS
VL: SFVLTQPASVQVNLGQTVSLTCTADTLSRSYASWYQQKPGQAPVLLIYRDTSRPSGVPDRFSGSSSGNTATLTISGAQAGDEADYYCATSDGIGSNYLWVFGGGTQLTVTG
notes: Fc-silenced (L234A/L235A/P329G) IgG1, lambda; Alexa Fluor 647-labeled in single-step flow cytometry
As for B5, the binding result (in test [1]; with IGSF11; with DCC) was “no binding (tested: 150 ng IgG1 per well)” throughout.

B6: TH9-0022 (antibody, human IgG1, kappa, L234A L235A, V domains shown)
VH: QSLEESGGRLVTPGTPLTLTCTVSGFSLSSYAMNWVRQAPGKGLEWIGIINSYGSTYYASWAKGRFTISKTSTTVDLKITSPTTEDTATYFCARVTYDSYGYGYAPYGMDLWGPGTLVTVSS
VL: LVMTQTPSSTSNAVGGTVTIKCQASQSIGNVLAWYQQKPGQPPKLLIYAASTLASGVPSRVGGSRSGTEYTLTISGVQREDAATYYCLGSDSDSDIAFGGGTELEILR
notes: also called TH9-022; negative control IgG1
In the case of B6, the binding result (in test [1]; with IGSF11; with DCC) was “no binding (tested: 150 ng IgG1 per well)” throughout.
